Biological target: PEDF receptor (unidentified cell surface receptor on bovine retinal capillary endothelial cells)
Assay: cell-based or functional assay

Binder: VLLSPLSVATALSALSLGAEQRTESIIHRALYYDLISSPDIHGT [PEDF 44 AA peptide (residues 78-121 of human PEDF)]
- inhibition of VEGF stimulated endothelial cell migration (BRCEC microchemotaxis chamber), IC50: 3 nM

— patent publication US20080293626A1 (Johns Hopkins, published 2008)
